Test results published in patent publication US20160168251A1.

Target: human NPRA on HEK293 cells, without added ligand (human) (UniProt P16066)
Assay: cell-based or functional assay

human NPRA on HEK293 cells, without added ligand (human), sequence (P16066 33-1061 limits assumed): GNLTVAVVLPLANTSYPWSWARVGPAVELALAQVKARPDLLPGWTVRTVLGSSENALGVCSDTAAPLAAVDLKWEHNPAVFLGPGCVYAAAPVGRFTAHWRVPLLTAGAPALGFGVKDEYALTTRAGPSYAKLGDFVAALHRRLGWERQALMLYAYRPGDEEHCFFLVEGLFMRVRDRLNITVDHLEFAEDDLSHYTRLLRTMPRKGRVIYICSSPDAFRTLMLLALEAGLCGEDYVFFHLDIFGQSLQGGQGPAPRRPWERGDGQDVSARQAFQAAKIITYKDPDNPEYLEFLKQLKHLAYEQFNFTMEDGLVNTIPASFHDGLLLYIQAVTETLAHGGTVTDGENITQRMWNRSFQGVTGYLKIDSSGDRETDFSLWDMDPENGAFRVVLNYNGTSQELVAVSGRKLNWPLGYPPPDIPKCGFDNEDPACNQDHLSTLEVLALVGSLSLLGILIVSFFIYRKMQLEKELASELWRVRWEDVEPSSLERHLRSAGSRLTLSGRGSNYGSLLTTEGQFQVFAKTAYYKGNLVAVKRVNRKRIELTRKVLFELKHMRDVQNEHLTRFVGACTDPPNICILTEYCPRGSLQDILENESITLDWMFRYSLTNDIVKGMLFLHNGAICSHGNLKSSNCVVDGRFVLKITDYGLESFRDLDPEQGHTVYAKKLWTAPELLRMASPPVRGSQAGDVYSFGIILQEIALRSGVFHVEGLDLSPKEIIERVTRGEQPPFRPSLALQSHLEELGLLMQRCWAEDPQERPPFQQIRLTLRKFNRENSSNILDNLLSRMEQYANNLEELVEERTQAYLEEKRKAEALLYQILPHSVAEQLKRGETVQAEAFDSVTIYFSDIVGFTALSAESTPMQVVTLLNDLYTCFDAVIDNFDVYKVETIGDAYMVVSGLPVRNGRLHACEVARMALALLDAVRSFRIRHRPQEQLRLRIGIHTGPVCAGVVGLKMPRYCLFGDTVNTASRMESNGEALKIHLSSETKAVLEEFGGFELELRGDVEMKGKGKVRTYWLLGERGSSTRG

- EC50 of BNP, cGMP production in HEK NPRA cells, in presence of negative control Fab: 90 nM
Substance: B-type natriuretic peptide (BNP), free (from UniProt P16860 27-134) (ligand)
